Results on one molecule are retold here after paper PMC6910952 (Nature Communications, 2019).

The target in this test is T1, GST-yNpl4 S498R (Saccharomyces cerevisiae, UniProt P33755 1-580, S498R).
T1 construct: Npl4 of Saccharomyces cerevisiae (yNpl4), full length; source: E. coli Rosetta (DE3) (pGEX-6P1), purified (Glutathione Sepharose FF, Resource Q); not shown: GST, N-terminal, kept
T1 sequence (looked up): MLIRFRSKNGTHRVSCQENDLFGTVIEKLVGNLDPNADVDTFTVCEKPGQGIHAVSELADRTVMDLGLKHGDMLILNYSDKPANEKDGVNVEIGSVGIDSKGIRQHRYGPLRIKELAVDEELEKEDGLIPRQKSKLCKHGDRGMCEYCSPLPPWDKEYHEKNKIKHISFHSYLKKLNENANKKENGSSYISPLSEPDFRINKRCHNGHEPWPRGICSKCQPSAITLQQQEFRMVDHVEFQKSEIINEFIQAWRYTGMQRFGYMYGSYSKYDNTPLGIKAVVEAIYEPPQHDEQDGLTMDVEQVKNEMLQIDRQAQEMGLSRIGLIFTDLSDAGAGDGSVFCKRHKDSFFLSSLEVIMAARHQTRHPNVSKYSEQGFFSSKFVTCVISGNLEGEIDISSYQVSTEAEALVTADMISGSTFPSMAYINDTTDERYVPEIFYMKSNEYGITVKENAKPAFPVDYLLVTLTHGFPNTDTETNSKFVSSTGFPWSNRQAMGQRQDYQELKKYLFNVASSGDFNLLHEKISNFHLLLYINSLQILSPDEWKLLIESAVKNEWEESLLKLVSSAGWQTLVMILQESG
The test is described as follows: pull-down; GST-yNpl4 (0.5 μM, wild type or mutant) on Glutathione Sepharose 4B beads, 1 h at room temperature with 0.5 μM yUfd1, 3 μM Cdc48 (0.5 μM hexamer) and 1 μg K48 chains in 100 μL 50 mM Tris-HCl pH 7.5, 100 mM NaCl, 10% glycerol, 0.1% Triton X-100; chains detected by anti-Ub immunoblot, proteins by Ponceau S. Particulars: both partners purified. On the technique in general: Immunoblotting shows a protein as a band on a membrane.

B1: yUfd1 (full length, untagged) (natural protein, Saccharomyces cerevisiae, UniProt P53044 1-361, looked up)
chain: MFSGFSSFGGGNGFVNMPQTFEEFFRCYPIAMMNDRIRKDDANFGGKIFLPPSALSKLSMLNIRYPMLFKLTANETGRVTHGGVLEFIAEEGRVYLPQWMMETLGIQPGSLLQISSTDVPLGQFVKLEPQSVDFLDISDPKAVLENVLRNFSTLTVDDVIEISYNGKTFKIKILEVKPESSSKSICVIETDLVTDFAPPVGYVEPDYKALKAQQDKEKKNSFGKGQVLDPSVLGQGSMSTRIDYAGIANSSRNKLSKFVGQGQNISGKAPKAEPKQDIKDMKITFDGEPAKLDLPEGQLFFGFPMVLPKEDEESAAGSKSSEQNFQGQGISLRKSNKRKTKSDHDSSKSKAPKSPEVIEID
notes: Ufd1 of Saccharomyces cerevisiae (yUfd1), full length; codon-optimized synthetic cDNA; removal of GST by HRV3C is surmised; also called untagged Ufd1; source: E. coli Rosetta (DE3) (pGEX-6P1), purified
In the case of B1, the binding result is given as “binds”.
